Data on 2 substances can be found in publication PMC6546751.

This assay addresses FITC-casein (fluorescein-labeled casein, Sigma #C0528) (bovine). Nature of the assay: not stated; apparent Kd of ClpB for casein in the presence of ATPγS (Supplementary Fig. 1d); method not given.

pKd: −log10 of the molar value.

In the case of “Escherichia coli ClpB K476C hyperactive middle-domain variant (from UniProt P63284 1-857) (enzyme)”, the pKd is 6.96.

With “Escherichia coli ClpB, wild type (from UniProt P63284 1-857) (enzyme)”, the pKd was 6.89.
